Among the data in paper PMC8586334 are ATPase activity (apparent kcat) of Dna2-E675A with ssDNA, stimulation by the RPA variant (48 nM) values, retold here.

The target of experiment [1] is S. cerevisiae RPA-SSL heterotrimer (Rfa1-F11S, I14S, F15L; Rfa2; Rfa3) (S. cerevisiae) (UniProt P22336).
Experiment [2] addresses S. cerevisiae replication protein A (RPA), wild type heterotrimer (Rfa1, Rfa2, Rfa3) (S. cerevisiae) (UniProt P22336).

S. cerevisiae RPA-SSL heterotrimer (Rfa1-F11S, I14S, F15L; Rfa2; Rfa3) (S. cerevisiae), sequence (P22336 whole entry F11S/I14S/F15L, chain 1 of 3): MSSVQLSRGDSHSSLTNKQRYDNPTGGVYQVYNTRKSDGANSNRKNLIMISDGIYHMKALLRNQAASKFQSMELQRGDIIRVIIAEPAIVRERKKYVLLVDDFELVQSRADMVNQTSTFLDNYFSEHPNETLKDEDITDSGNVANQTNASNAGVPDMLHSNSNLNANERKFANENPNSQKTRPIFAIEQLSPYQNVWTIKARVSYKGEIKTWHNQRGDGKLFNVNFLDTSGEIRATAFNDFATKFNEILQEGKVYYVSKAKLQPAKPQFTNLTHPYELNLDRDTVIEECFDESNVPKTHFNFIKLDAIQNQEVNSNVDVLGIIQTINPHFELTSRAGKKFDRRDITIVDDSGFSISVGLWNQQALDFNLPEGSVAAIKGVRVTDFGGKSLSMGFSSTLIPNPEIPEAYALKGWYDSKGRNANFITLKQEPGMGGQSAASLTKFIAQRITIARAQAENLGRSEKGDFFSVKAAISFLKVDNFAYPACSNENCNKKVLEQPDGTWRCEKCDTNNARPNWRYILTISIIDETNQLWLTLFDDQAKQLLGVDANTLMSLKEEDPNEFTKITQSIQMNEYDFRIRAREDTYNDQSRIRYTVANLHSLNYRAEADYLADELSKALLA
S. cerevisiae RPA-SSL heterotrimer (Rfa1-F11S, I14S, F15L; Rfa2; Rfa3) (S. cerevisiae), sequence (P26754 whole entry, chain 2 of 3, further chain): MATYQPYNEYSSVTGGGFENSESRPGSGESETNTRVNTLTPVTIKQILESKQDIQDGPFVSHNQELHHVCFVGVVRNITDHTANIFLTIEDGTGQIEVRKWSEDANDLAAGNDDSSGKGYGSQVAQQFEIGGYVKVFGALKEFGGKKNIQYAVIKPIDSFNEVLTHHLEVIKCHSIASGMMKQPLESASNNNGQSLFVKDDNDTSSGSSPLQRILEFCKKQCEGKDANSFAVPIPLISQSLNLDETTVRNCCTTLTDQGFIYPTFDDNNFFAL
S. cerevisiae RPA-SSL heterotrimer (Rfa1-F11S, I14S, F15L; Rfa2; Rfa3) (S. cerevisiae), sequence (P26755 whole entry, chain 3 of 3, further chain): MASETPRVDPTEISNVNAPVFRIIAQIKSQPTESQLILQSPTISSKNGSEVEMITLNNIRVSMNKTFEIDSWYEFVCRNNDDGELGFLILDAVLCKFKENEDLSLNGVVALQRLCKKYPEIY
S. cerevisiae replication protein A (RPA), wild type heterotrimer (Rfa1, Rfa2, Rfa3) (S. cerevisiae), sequence (P22336 whole entry, chain 1 of 3): as the sequence (P22336 whole entry F11S/I14S/F15L, chain 1 of 3) above, with S11F, S14I, L15F counted along it
S. cerevisiae replication protein A (RPA), wild type heterotrimer (Rfa1, Rfa2, Rfa3) (S. cerevisiae), sequence (P26754 whole entry, chain 2 of 3, further chain): as the sequence (P26754 whole entry, chain 2 of 3, further chain) above
S. cerevisiae replication protein A (RPA), wild type heterotrimer (Rfa1, Rfa2, Rfa3) (S. cerevisiae), sequence (P26755 whole entry, chain 3 of 3, further chain): as the sequence (P26755 whole entry, chain 3 of 3, further chain) above

With “S. cerevisiae Dna2-E675A (nuclease-dead) (from UniProt P38859 1-1522) (enzyme)”, the ATPase activity (apparent kcat) of Dna2-E675A with ssDNA, stimulation by the RPA variant (48 nM) in experiment [1] and in experiment [2] was 2 fold each time.
